Target: human cMET (human, UniProt P08581 25-932)
Test: phage TRF on cMET

human cMET, sequence (P08581 25-932 limits assumed): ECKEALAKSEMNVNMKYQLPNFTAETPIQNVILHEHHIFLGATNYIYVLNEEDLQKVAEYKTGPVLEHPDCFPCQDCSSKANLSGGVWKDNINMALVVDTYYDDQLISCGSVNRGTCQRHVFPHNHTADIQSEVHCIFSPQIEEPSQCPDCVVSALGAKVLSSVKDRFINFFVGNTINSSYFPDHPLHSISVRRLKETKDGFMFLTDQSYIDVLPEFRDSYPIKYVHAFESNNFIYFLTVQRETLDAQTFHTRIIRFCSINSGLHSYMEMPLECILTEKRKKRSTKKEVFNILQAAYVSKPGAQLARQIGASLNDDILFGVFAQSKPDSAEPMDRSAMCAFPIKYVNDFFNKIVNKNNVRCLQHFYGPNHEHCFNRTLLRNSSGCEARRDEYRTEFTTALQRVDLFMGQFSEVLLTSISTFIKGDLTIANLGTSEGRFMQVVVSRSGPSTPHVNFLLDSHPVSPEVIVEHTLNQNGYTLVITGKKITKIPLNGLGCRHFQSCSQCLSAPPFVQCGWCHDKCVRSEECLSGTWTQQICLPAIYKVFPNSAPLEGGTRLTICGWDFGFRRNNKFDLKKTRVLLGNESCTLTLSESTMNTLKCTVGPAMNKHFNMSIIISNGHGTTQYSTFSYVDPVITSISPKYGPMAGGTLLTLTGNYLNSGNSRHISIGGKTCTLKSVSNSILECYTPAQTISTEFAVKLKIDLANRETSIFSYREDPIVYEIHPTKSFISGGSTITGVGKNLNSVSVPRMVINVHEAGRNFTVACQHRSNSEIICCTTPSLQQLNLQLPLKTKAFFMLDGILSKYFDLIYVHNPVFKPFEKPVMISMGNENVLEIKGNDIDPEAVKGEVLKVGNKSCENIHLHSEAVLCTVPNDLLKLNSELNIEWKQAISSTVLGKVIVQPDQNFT

B1: KB_A12_cMET_H08 (scFv, V domains shown)
VH: EVQLVESGGGLVRPGGSLRLSCAASGFTFSSYAMSWVRQAPGKGLEWVSAISGSGGSTYYADSVKGRFTISRDNTKNSLYLQMTSLRADDTAFYYCVKDFGPGYGTGWFDYWGPGTLVTVSS
VL: AVNWYQQLPGKAPKLLIYAAGRCQTGRSGTGRCKQDSDCLAGCVCGPNGFCGANSGVSDRFSAAKSGTSASLAINGLRSEDEADYYCAAWDDSLNGYVFGTGTKLTVLG
B1 showed a TRF signal of 6730.
